What was measured:
[1] = target: Recombinant CypD Ser123→Ala mutant (UniProt P30405)
[2] = target: Recombinant GST-CypD (wild type) (UniProt P30405)
Sequence of Recombinant GST-CypD (wild type) (P30405 whole entry): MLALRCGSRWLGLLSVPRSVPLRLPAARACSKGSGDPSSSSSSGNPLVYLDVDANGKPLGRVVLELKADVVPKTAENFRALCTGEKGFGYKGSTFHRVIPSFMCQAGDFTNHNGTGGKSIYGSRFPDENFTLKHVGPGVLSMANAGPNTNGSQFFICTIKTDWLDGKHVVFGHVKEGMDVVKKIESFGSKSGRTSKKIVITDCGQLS

Sequence of Recombinant CypD Ser123→Ala mutant (P30405 whole entry, looked up, change not shown): as the sequence (P30405 whole entry) above

active Akt1
kinase assay with recombinant proteins, autoradiography [1]: readily phosphorylated | kinase assay with recombinant proteins, autoradiography [2]: readily phosphorylated
